Columns and labels:
Settings in all cases: tags: SV40 NLS, 3xFLAG, nucleoplasmin NLS
LPG50148-nAPG07433.1 = LPG50148-nAPG07433.1 (synthetic); assay: cell_activity; mutated reads, HEK293FT; PAM 3' of target
Experimental: (§1) 500 ng of plasmid comprising an expression cassette comprising a coding sequence for a fusion protein shown in Table 10 and 500 ng of plasmid comprising an expression cassette encoding for an sgRNA shown in Table 11 were co-transfected into HEK293FT cells at 75-90% confluency in 24-well plates using Lipofectamine 2000 reagent (Life Technologies). Cells were then incubated at 37° C. for 72 h. Following incubation, genomic DNA was then extracted using NucleoSpin 96 Tissue (Macherey-Nagel) following the manufacturer's protocol. The genomic region flanking the targeted genomic site was PCR amplified using the primers in Table 11 and products were purified using ZR-96 DNA Clean and Concentrator (Zymo Research) following the manufacturer's protocol. The purified PCR products underwent Next Generation Sequencing on Illumina MiSeq. Typically, 100,000 of 250 bp paired-end reads (2×100,000 reads) are generated per amplicon. The reads were analyzed using CRISPResso (Pinello, et al. 2016 Nature Biotech, 34:695-697) to calculate the rates of editing. Output alignments were analyzed for INDEL formation or introduction of specific adenine mutations.
(§2) The editing rate for adenines within or proximal to the target sequence is indicated. “A5” indicates, for example, an adenine at position 5 of the target sequence. The position of each nucleotide in the target sequence was determined by numbering the first nucleotide in the target sequence closest to the PAM (which is 3′ of the target for APG07433.1) as position 1, and the position number increases in the 5′ direction away from the PAM sequence. The tables also show which nucleotide the adenine was changed to, and at what rate.

LPG50140-nAPG07433.1 = LPG50140-nAPG07433.1 (synthetic); assay: as above
Experimental: as §1, §2

LPG50158-nAPG07433.1 = LPG50158-nAPG07433.1 (synthetic); assay: cell_activity; mutated reads, HEK293FT
Experimental: as §1, §2

LPG50160-nAPG07433.1 = LPG50160-nAPG07433.1 (synthetic); assay: cell_activity; mutated reads, HEK293FT
Experimental: as §1, §2

LPG50179-nAPG07433.1 = LPG50179-nAPG07433.1 (synthetic); assay: cell_activity; mutated reads, HEK293FT
Experimental: as §1, §2

LPG50155-nAPG07433.1 = LPG50155-nAPG07433.1 (synthetic); assay: cell_activity; mutated reads, HEK293FT
Experimental: as §1, §2

LPG50147-nAPG07433.1 = LPG50147-nAPG07433.1 (synthetic); assay: cell_activity; mutated reads, HEK293FT
Experimental: as §1, §2

LPG50165-nAPG07433.1 = LPG50165-nAPG07433.1 (synthetic); assay: cell_activity; mutated reads, HEK293FT
Experimental: as §1, §2

LPG50145-nAPG07433.1 = LPG50145-nAPG07433.1 (synthetic); assay: cell_activity; mutated reads, HEK293FT
Experimental: as §1, §2

LPG50159-nAPG07433.1 = LPG50159-nAPG07433.1 (synthetic); assay: cell_activity; mutated reads, HEK293FT
Experimental: as §1, §2

LPG50144-nAPG07433.1 = LPG50144-nAPG07433.1 (synthetic); assay: cell_activity; mutated reads, HEK293FT
Experimental: as §1, §2

LPG50175-nAPG07433.1 = LPG50175-nAPG07433.1 (synthetic); assay: cell_activity; mutated reads, HEK293FT
Experimental: as §1, §2

LPG50149-nAPG07433.1 = LPG50149-nAPG07433.1 (synthetic); assay: cell_activity; mutated reads, HEK293FT
Experimental: as §1, §2

LPG50152-nAPG07433.1 = LPG50152-nAPG07433.1 (synthetic); assay: cell_activity; mutated reads, HEK293FT
Experimental: as §1, §2

LPG50150-nAPG07433.1 = LPG50150-nAPG07433.1 (synthetic); assay: cell_activity; mutated reads, HEK293FT
Experimental: as §1, §2

LPG50164-nAPG07433.1 = LPG50164-nAPG07433.1 (synthetic); assay: cell_activity; mutated reads, HEK293FT
Experimental: as §1, §2

LPG50162-nAPG07433.1 = LPG50162-nAPG07433.1 (synthetic); assay: cell_activity; mutated reads, HEK293FT
Experimental: as §1, §2

LPG50167-nAPG07433.1 = LPG50167-nAPG07433.1 (synthetic); assay: cell_activity; mutated reads, HEK293FT
Experimental: as §1, §2

LPG50173-nAPG07433.1 = LPG50173-nAPG07433.1 (synthetic); assay: cell_activity; mutated reads, HEK293FT
Experimental: as §1, §2

LPG50141-nAPG07433.1 = LPG50141-nAPG07433.1 (synthetic); assay: cell_activity; mutated reads, HEK293FT
Experimental: as §1, §2

LPG50168-nAPG07433.1 = LPG50168-nAPG07433.1 (synthetic); assay: cell_activity; mutated reads, HEK293FT
Experimental: as §1, §2

LPG50178-nAPG07433.1 = LPG50178-nAPG07433.1 (synthetic); assay: cell_activity; mutated reads, HEK293FT
Experimental: as §1, §2

LPG50181-nAPG07433.1 = LPG50181-nAPG07433.1 (synthetic); assay: cell_activity; mutated reads, HEK293FT
Experimental: as §1, §2

LPG50166-nAPG07433.1 = LPG50166-nAPG07433.1 (synthetic); assay: cell_activity; mutated reads, HEK293FT
Experimental: as §1, §2

LPG50182-nAPG07433.1 = LPG50182-nAPG07433.1 (synthetic); assay: cell_activity; mutated reads, HEK293FT
Experimental: as §1, §2

LPG50170-nAPG07433.1 = LPG50170-nAPG07433.1 (synthetic); assay: cell_activity; mutated reads, HEK293FT
Experimental: as §1, §2

LPG50171-nAPG07433.1 = LPG50171-nAPG07433.1 (synthetic); assay: cell_activity; mutated reads, HEK293FT
Experimental: as §1, §2

LPG50163-nAPG07433.1 = LPG50163-nAPG07433.1 (synthetic); assay: cell_activity; mutated reads, HEK293FT
Experimental: as §1, §2

LPG50151-nAPG07433.1 = LPG50151-nAPG07433.1 (synthetic); assay: cell_activity; mutated reads, HEK293FT
Experimental: as §1, §2

LPG50169-nAPG07433.1 = LPG50169-nAPG07433.1 (synthetic); assay: cell_activity; mutated reads, HEK293FT
Experimental: as §1, §2

LPG50156-nAPG07433.1 = LPG50156-nAPG07433.1 (synthetic); assay: cell_activity; mutated reads, HEK293FT
Experimental: as §1, §2

LPG50146-nAPG07433.1 = LPG50146-nAPG07433.1 (synthetic); assay: cell_activity; mutated reads, HEK293FT
Experimental: as §1, §2

LPG50143-nAPG07433.1 = LPG50143-nAPG07433.1 (synthetic); assay: cell_activity; mutated reads, HEK293FT
Experimental: as §1, §2

LPG50177-nAPG07433.1 = LPG50177-nAPG07433.1 (synthetic); assay: cell_activity; mutated reads, HEK293FT
Experimental: as §1, §2

LPG50176-nAPG07433.1 = LPG50176-nAPG07433.1 (synthetic); assay: cell_activity; mutated reads, HEK293FT
Experimental: as §1, §2

LPG50174-nAPG07433.1 = LPG50174-nAPG07433.1 (synthetic); assay: cell_activity; mutated reads, HEK293FT
Experimental: as §1, §2

LPG50157-nAPG07433.1 = LPG50157-nAPG07433.1 (synthetic); assay: cell_activity; mutated reads, HEK293FT
Experimental: as §1, §2

LPG50142-nAPG07433.1 = LPG50142-nAPG07433.1 (synthetic); assay: cell_activity; mutated reads, HEK293FT
Experimental: as §1, §2

B1: SGN000186 sgRNA (Table 11) ; SGN000186 target (Table 11) (ssRNA ; dsDNA)
RNA: GGACAGUGCGCAUCUCCCUGGUCAUAGUUCCAUUAAAGCCAAAAGUGGCUUUGAUGUUUCUAUGAUAAGGGUUUCGACCCGUGGCGUCGGGGAUCGCCUGCCCAUUGAAAUGGGCUUCUCCCCAUUUAUU
DNA 1: GGACAGTGCGCATCTCCCTG
DNA 2: CAGGGAGATGCGCACTGTCC
Question: Which activity (LPG50148-nAPG07433.1) does the source give for B1 here?
Answer: Its activity is 32.6%.

Question: And the activity (LPG50140-nAPG07433.1)?
Answer: Its activity is 18.8%.

Question: And the activity (LPG50158-nAPG07433.1)?
Answer: The activity was 4.91%.

Question: And the activity (LPG50160-nAPG07433.1)?
Answer: Its activity is 16%.

Question: And the activity (LPG50179-nAPG07433.1)?
Answer: The activity was 12.5%.

Question: What about the activity (LPG50155-nAPG07433.1) of the same binder?
Answer: Its activity is 17%.

Question: What about the activity (LPG50147-nAPG07433.1) of the same binder?
Answer: Its activity is 12.6%.

Question: What about the activity (LPG50165-nAPG07433.1) of the same binder?
Answer: Its activity is 9.88%.

Question: What about the activity (LPG50145-nAPG07433.1) of the same binder?
Answer: The activity was 9.93%.

Question: And the activity (LPG50159-nAPG07433.1)?
Answer: Its activity is 6.99%.

Question: What about the activity (LPG50144-nAPG07433.1) of the same binder?
Answer: The activity was 12.2%.

Question: And the activity (LPG50175-nAPG07433.1)?
Answer: Its activity is 14%.

Question: And the activity (LPG50149-nAPG07433.1)?
Answer: Its activity is 22.1%.

Question: And the activity (LPG50152-nAPG07433.1)?
Answer: The activity was 18%.

Question: What about the activity (LPG50150-nAPG07433.1) of the same binder?
Answer: The activity was 23.7%.

Question: What about the activity (LPG50164-nAPG07433.1) of the same binder?
Answer: The activity was 7.38%.

Question: And the activity (LPG50162-nAPG07433.1)?
Answer: Its activity is 14%.

Question: And the activity (LPG50167-nAPG07433.1)?
Answer: The activity was 8%.

Question: And the activity (LPG50173-nAPG07433.1)?
Answer: Its activity is 7.88%.

Question: And the activity (LPG50141-nAPG07433.1)?
Answer: Its activity is 9.79%.

Question: And the activity (LPG50168-nAPG07433.1)?
Answer: Its activity is 7%.

Question: What about the activity (LPG50178-nAPG07433.1) of the same binder?
Answer: Its activity is 12.9%.

Question: And the activity (LPG50181-nAPG07433.1)?
Answer: The activity was 12.6%.

Question: What about the activity (LPG50166-nAPG07433.1) of the same binder?
Answer: Its activity is 8%.

Question: What about the activity (LPG50182-nAPG07433.1) of the same binder?
Answer: The activity was 9%.

Question: And the activity (LPG50170-nAPG07433.1)?
Answer: The activity was 12.2%.

Question: What about the activity (LPG50171-nAPG07433.1) of the same binder?
Answer: The activity was 12.7%.

Question: What about the activity (LPG50163-nAPG07433.1) of the same binder?
Answer: Its activity is 10%.

Question: And the activity (LPG50151-nAPG07433.1)?
Answer: Its activity is 7.76%.

Question: And the activity (LPG50169-nAPG07433.1)?
Answer: Its activity is 13%.

Question: And the activity (LPG50156-nAPG07433.1)?
Answer: Its activity is 12.7%.

Question: And the activity (LPG50146-nAPG07433.1)?
Answer: The activity was 17.8%.

Question: And the activity (LPG50143-nAPG07433.1)?
Answer: The activity was 10.6%.

Question: And the activity (LPG50177-nAPG07433.1)?
Answer: Its activity is 11%.

Question: And the activity (LPG50176-nAPG07433.1)?
Answer: The activity was 7%.

Question: And the activity (LPG50174-nAPG07433.1)?
Answer: Its activity is 8%.

Question: And the activity (LPG50157-nAPG07433.1)?
Answer: The activity was 12.2%.

Question: And the activity (LPG50142-nAPG07433.1)?
Answer: The activity was 14.1%.
